Reference: the Immune Epitope Database (IEDB)

Experiments:
HLA-A*03:01 = test: IEDB peptide-MHC binding, cellular MHC/competitive/fluorescence; ≥ and ≤ were set here for values at or beyond the usual limits of such assays; conditions: source organism: Hepatitis B virus
HLA-A*11:01 = test: as above; conditions: source organism: Hepatitis B virus
HLA-A*31:01 = test: as above; conditions: source organism: Hepatitis B virus
HLA-A*68:01 = test: as above; conditions: source organism: Hepatitis B virus
HLA-A*68:02 [1] = test: as above
HLA-A*02:02 [2] = test: IEDB peptide-MHC binding, purified MHC/competitive/radioactivity; ≥ and ≤ were set here for values at or beyond the usual limits of such assays; conditions: source organism: Hepatitis B virus
HLA-A*02:06 [3] = test: as above; conditions: source organism: Hepatitis B virus
HLA-A*02:03 [4] = test: IEDB peptide-MHC binding, cellular MHC/competitive/fluorescence; ≥ and ≤ were set here for values at or beyond the usual limits of such assays
HLA-A*02:03 [5] = test: IEDB peptide-MHC binding, purified MHC/competitive/radioactivity; ≥ and ≤ were set here for values at or beyond the usual limits of such assays; conditions: source organism: Hepatitis B virus
HLA-A*02:01 [6] = test: as above; conditions: source organism: Hepatitis B virus
HLA-A*02:01 [7] = test: IEDB peptide-MHC binding, cellular MHC/competitive/fluorescence; ≥ and ≤ were set here for values at or beyond the usual limits of such assays
HLA-A*02:02 [8] = test: as above
HLA-A*68:02 [9] = test: IEDB peptide-MHC binding, purified MHC/competitive/radioactivity; ≥ and ≤ were set here for values at or beyond the usual limits of such assays; conditions: source organism: Hepatitis B virus
HLA-A*02:06 [10] = test: IEDB peptide-MHC binding, cellular MHC/competitive/fluorescence; ≥ and ≤ were set here for values at or beyond the usual limits of such assays; conditions: source organism: Vaccinia virus WR
[11] = source organism: Hepatitis B virus
[12] = source organism: Vaccinia virus WR

Sequence | IC50 (HLA-A*03:01) | IC50 (HLA-A*11:01) | IC50 (HLA-A*31:01) | IC50 (HLA-A*68:01) | IC50 (HLA-A*68:02 [1]; [11]) | IC50 (HLA-A*02:02 [2]) | IC50 (HLA-A*02:06 [3]) | IC50 (HLA-A*02:03 [4]; [11]) | IC50 (HLA-A*02:03 [5]) | IC50 (HLA-A*02:01 [6]) | IC50 (HLA-A*02:01 [7]; [11]) | IC50 (HLA-A*02:02 [8]; [11]) | IC50 (HLA-A*68:02 [9]) | IC50 (HLA-A*02:01 [7]; [12]) | IC50 (HLA-A*02:02 [8]; [12]) | IC50 (HLA-A*02:03 [4]; [12]) | IC50 (HLA-A*02:06 [10]) | IC50 (HLA-A*68:02 [1]; [12])
GLLGWSPQA | 14 µM | ≥ 70 µM | 9.14 µM | ≥ 70 µM | ≥ 70 µM | 51 nM | 1.05 µM |  |  |  |  |  |  |  |  |  |  | 
WLSLLVPFV | 40.3 µM |  | 11.7 µM | ≥ 70 µM |  |  |  |  |  |  |  |  |  |  |  |  |  | 
LLVLLDYQGM | 19.5 µM | ≥ 70 µM | 7.26 µM | ≥ 70 µM | 61.1 µM | 799 nM | 1.81 µM | 5.58 µM |  |  |  |  |  |  |  |  |  | 
FLLAQFTSAI | 11.2 µM | ≥ 70 µM | 16.1 µM | 23.6 µM |  | 3.6 nM | 0.045 µM |  | 0.00031 µM |  |  |  |  |  |  |  |  | 
YLVSFGVWI | 15.2 µM | ≥ 70 µM | ≥ 70 µM | ≥ 70 µM | 38.2 µM | 140 nM | 1.84 µM |  | 0.311 µM | 0.173 µM |  |  |  |  |  |  |  | 
ALMPLYACI | ≥ 70 µM | ≥ 70 µM | 50.3 µM | ≥ 70 µM |  |  |  |  |  |  |  |  |  |  |  |  |  | 
ILSPFLPLL |  |  |  | ≥ 70 µM |  | 0.076 nM | 0.00093 µM |  | 0.00084 µM | 0.0014 µM |  |  |  |  |  |  |  | 
SLYSILSPFL | 14.3 µM | ≥ 70 µM | 5.67 µM | 64 µM | 6.67 µM | 1 nM | 0.076 µM |  | 0.013 µM | 0.0082 µM |  |  |  |  |  |  |  | 
KVGAGAFGL | 25 µM | ≥ 70 µM | 12.6 µM | ≥ 70 µM | ≥ 70 µM |  | 1.14 µM | 34.7 µM |  |  | 11 µM | 9.12 µM |  |  |  |  |  | 
PLLPIFFCL | ≥ 70 µM | ≥ 70 µM | 9.87 µM | 44.2 µM | 33.1 µM | 63 nM | 0.087 µM |  | 0.637 µM | 0.111 µM |  |  |  |  |  |  |  | 
FLPSDFFPSV | ≥ 70 µM |  | 20.1 µM | ≥ 70 µM |  |  |  |  |  |  |  |  | 0.028 µM |  |  |  |  | 
FLGPLLVLQA | 33.1 µM | 61.2 µM | 14.7 µM | ≥ 70 µM | 30.3 µM | 3690 nM | 1.37 µM |  | 0.16 µM |  |  |  |  |  |  |  |  | 
VLLDYQGML | ≥ 70 µM | 35.2 µM | 12.8 µM | ≥ 70 µM | ≥ 70 µM | 53 nM | 0.679 µM | 22.6 µM |  | 0.081 µM |  |  |  |  |  |  |  | 
NLSWLSLDV | 9.22 µM | ≥ 70 µM | 15.4 µM | ≥ 70 µM | 28.4 µM | 69 nM | 2.74 µM |  | 0.05 µM |  |  |  |  |  |  |  |  | 
GLSRYVARV | 7.23 µM | ≥ 70 µM | 24.7 µM | ≥ 70 µM | 8.86 µM | 11 nM | 1.17 µM |  | 0.0015 µM | 0.154 µM |  |  |  |  |  |  |  | 
YQGMLPVCPL | 24 µM | ≥ 70 µM | 11.4 µM | ≥ 70 µM | 5.34 µM | 35 nM | 0.165 µM |  | 0.02 µM | 0.543 µM |  |  |  |  |  |  |  | 
SILSPFLPL |  |  |  | ≥ 70 µM |  |  |  |  |  |  |  |  |  |  |  |  |  | 
FLLTRILTI | ≥ 70 µM |  | ≥ 70 µM | ≥ 70 µM | 22.3 µM |  |  |  |  |  |  |  |  |  |  |  |  | 
FLCKQYLNL | ≥ 70 µM | ≥ 70 µM | 26.3 µM | ≥ 70 µM | ≥ 70 µM | 175 nM | 1.11 µM |  | 0.011 µM |  |  |  |  |  |  |  |  | 
GMLPVCPLI | ≥ 70 µM | ≥ 70 µM |  | ≥ 70 µM |  |  |  |  |  |  |  |  |  |  |  |  |  | 
YMDDVVLGA | 69.4 µM | ≥ 70 µM | ≥ 70 µM | ≥ 70 µM | 50.1 µM |  | 3.71 µM |  | 1.29 µM |  |  |  |  |  |  |  |  | 
PTPKKMNIVT |  |  |  |  |  |  |  |  |  |  |  |  |  | ≥ 70 µM | 65.8 µM | 55.7 µM | ≥ 70 µM | ≥ 70 µM
GVEVRYIDI |  |  |  |  |  |  |  |  |  |  |  |  |  | 16.4 µM | 12 µM | 45.3 µM | 10.2 µM | ≥ 70 µM
YIKDLKHAT |  |  |  |  |  |  |  |  |  |  |  |  |  | 8.08 µM | 18.5 µM | ≥ 70 µM | 39.4 µM | ≥ 70 µM
